Patent publication US20210260113A1, “DEVICES, METHODS, COMPOSITIONS AND SYSTEMS FOR THE TREATMENT OF AGING AND AGE-RELATED DISORDERS” (Gero LLC, priority 2018, published 2021)
No end group written: not given here.

Molecular target: T1, NBL1 (AA 1-180) protein (FcTag) (Homo sapiens, UniProt P41271)
T1 construct: NBL1 (AA 1-180) protein (FcTag); purchased SinoBiological (via AntibodiesOnline) BIN2002229
T1 sequence (P41271 17-180): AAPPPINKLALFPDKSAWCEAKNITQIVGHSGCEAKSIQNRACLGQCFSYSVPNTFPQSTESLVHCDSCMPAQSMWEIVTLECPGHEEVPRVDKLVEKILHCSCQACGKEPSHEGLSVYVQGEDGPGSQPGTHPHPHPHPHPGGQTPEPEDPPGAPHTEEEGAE
Test: PEPperCHIP Discovery Microarray screening of cyclic peptide binders
Type: binding
Conditions: cyclic peptides of common structure S1 with the given SEQ; NBL1 at 10 μg/ml
From the text: The peptide target binder discovery screening was done with PEPperCHIP® Discovery Microarrays with 36,040 random peptides with alength of 12 amino acids printed in duplicate (72,080 peptide spots). After peptide synthesis, all peptides were cyclized via a thioetherlinkage between a C-terminal cysteine side chain and an appropriately modified N-terminus. The PEPperCHIP® Discovery Microarrays contained additional myc(EQKLISEEDL, 415 spots) and HA (YPYDVPDYAG, 420 spots) control peptides as specified in the peptide maps of the microarray data files.
Samples: NBL1 (AA 1-180) protein (FcTag) (SinoBiological, AntibodiesOnline BIN2002229) Washing Buffer: PBS, pH 7.4 with 0.005% Tween 20 (2×10 sec after each assay) Blocking Buffer: Rockland blocking buffer MB-070 (30 min before the first assay) Incubation Buffer: Washing buffer with 1% blocking buffer Assay Conditions: Protein concentrations of […] in incubation buffer; incubation for 16 h at 4° C. and shaking at 140 rpm Secondary Antibodies: Mouse natriuretic peptides B DyLight800 antibody (1:5000; Hytest, AntibodiesOnline product ABIN263370), goat anti-human IgG (Fc) DyLight680 (1:5000); 45 min staining in incubation buffer at RT Control Antibodies: Mouse monoclonal anti-HA (12CA5) DyLight680(1:2000), mouse monoclonal anti-HA (12CA5) DyLight800 (1:2000); 45 min staining in incubation buffer at RT Scanner: LI-COR Odyssey Imaging System; scanning offset 0.65 mm, resolution 21 μm, scanning intensities of 7/7 (red=700 nm/green=800 nm)
After 15 min pre-swelling in washing buffer and 30 min in blocking buffer, two PEPperCHIP® Discovery Microarrays were initially incubated with the secondary antibodies mouse natriuretic peptides B DyLight800 (1:5000) and goat anti-human IgG (Fc) DyLight680 (1:5000) as well as with the control antibodies in incubation buffer to analyze background interactions with the 36,040 different random cyclic constrained peptides of the microarrays. Subsequent incubation of the PEPperCHIP® Discovery Microarrays was done with target proteins NBL1 at concentrations of 1 μg/ml and 10 μg/ml in incubation buffer and followed by staining with the secondary antibodies as well as read-out with a LI-COR Odyssey Imaging System at scanning intensity of 7/7 (red/green). The additional HA peptides framing the peptide microarrays were simultaneously stained as internal quality control to confirm the assay quality and the peptide microarray integrity.
A software algorithm breaks down fluorescence intensities of each spot into raw, foreground and background signal, and calculates averaged median foreground intensities and spot-to-spot deviations of spot duplicates. We tolerated a maximum spot-to-spot deviation of 40%, otherwise the corresponding intensity value was zeroed. Based on averaged median foreground intensities, an intensity map was generated and interactions in the peptide map highlighted by an intensity color code with red(NBL1 for high and white for low spot intensities.
To identify the top interactions of the target proteins, the averaged and corrected intensity values were sorted by decreasing spot intensities. We further plotted averaged spot intensities of all assays against the microarray content from left on top to right on bottom of the chip to visualize overall spot intensities and signal-to-noise ratios. For a better data overview, the baselines of the intensity plots were leveled and main responses annotated next to the corresponding signal. The intensity plots were correlated with peptide and intensity maps as well as with visual inspection of the microarray scans to identify peptides that interacted with target proteins NBL1.

Row | Sequence | intensity values, 10 μg/ml
1 | IYFYSCSVPGMY | 233
2 | YHATGVRWRFLR (not fully specified (C-terminus, bridges); also: cyclized via thioether between C-terminal Cys side chain and modified N-terminus) | 445
3 | YWHKKLYYMRYR (not fully specified (C-terminus, bridges); also: cyclized via thioether between C-terminal Cys side chain and modified N-terminus) | 200.5
4 | DSRKFFYRGNRR | 328
5 | LGPAACFTSEPV | 212.5
6 | KQRSKRMASMKLF | 249
7 | YGSHYYWNHLRR (not fully specified (C-terminus, bridges); also: cyclized via thioether between C-terminal Cys side chain and modified N-terminus) | 185
8 | RFTYSPTQRAYR | 186
9 | LVMWHRHFALRR | 185
10 | SQKMLRRGGMIRK | 236.5
11 | DMAARCVCKRRR | 554
12 | MFFRPFKGHGRR | 251.5
13 | WVARDHVNHNRR (not fully specified (C-terminus, bridges); also: cyclized via thioether between C-terminal Cys side chain and modified N-terminus) | 189
14 | KVALFLANRLFR | 181
15 | ARQSHRRPGGKR | 338
16 | FWFHLKYWAWRR | 215
17 | YMPSNCCWWWRR (not fully specified (C-terminus, bridges); also: cyclized via thioether between C-terminal Cys side chain and modified N-terminus) | 197
18 | RHGTRYHSRLFR | 179.5
19 | KVRALRDISYRR | 190.5
20 | DFKQLLLPGRKR | 216
21 | YWTKGLLWRNRR (not fully specified (C-terminus, bridges); also: cyclized via thioether between C-terminal Cys side chain and modified N-terminus) | 323
22 | VHQCRASRYPRI | 235.5
23 | RFNHVTCRTFKR | 301.5
24 | HTWPYALTQKRR | 176.5
25 | LRLFKISRNFPR | 177

Row | Sequence | intensity values, 10 μg/ml
26 | LFENCANVCIGL | 193.5
27 | FDWRISQRMRRR | 448
28 | YHHKPQRQNRGR (not fully specified (C-terminus, bridges); also: cyclized via thioether between C-terminal Cys side chain and modified N-terminus) | 283
29 | SRHNYSHWFYRR | 198
30 | TLRCHRHRFR | 489
31 | GRHLPEASKRFR | 192
32 | VDFGGGWVCFCP | 189
33 | RYNQSIRVIIGR | 234
34 | NKQMNHPPRRHR | 210
35 | CHCIHFTHRRLR | 290
36 | LRNVVFIWHIRYR | 213
37 | FPQSRGRGKLWR | 195
38 | WVRIRLSRRQFR (not fully specified (C-terminus, bridges); also: cyclized via thioether between C-terminal Cys side chain and modified N-terminus) | 235
39 | RPRHVFKLYGRL | 205
40 | YYRIHHQRRGRS (not fully specified (C-terminus, bridges); also: cyclized via thioether between C-terminal Cys side chain and modified N-terminus) | 452
41 | NCYHMVYYLIIL | 185
42 | RQNANKAWQKRR | 182.5
43 | RKKDPRAYDRFR | 294.5
44 | TYDNYIRYFRIR | 175
45 | ARMRQTHRPVYR | 317.5
46 | IRHSDRVDRYSR | 172
47 | FPMCQKVPFVRR | 174.5
48 | RRRAQPSPMRHK | 187
49 | GDRGCFFIVTFI | 214
